The Human Domainome abundance scans (Beltran et al. 2025)
± gives the uncertainty stated by the source.

B1: Histidine--tRNA ligase, cytoplasmic, residues 8 to 45; numbered along this chain, P12081 (parent)
chain: EELVKLQGERVRGLKQQKASAELIEEEVAKLLKLKAQL

Variants of: B1
Test: abundance fitness (aPCA) (normalised: wild type 0, dead -1); higher = more abundant; growth selection in yeast, the domain comes from the species named
Conditions: Homo sapiens

Going from EELVKLQGERVRGLKQQKASAELIEEEVAKALKLKAQL [L31A] to EELVKLQGERVRGLKQQKASAELIEEEVAKNLKLKAQL [L31N], the abundance fitness rises from -0.084 ± 0.1 to 0.22 ± 0.11.

EELVKLQGERVRGLKQQKASAELIEEEVAKELKLKAQL [L31E] and EELVKLQGERVRGLKQQKASAELIEEEVAKPLKLKAQL [L31P] are within error of each other in abundance fitness: 0.257 ± 0.09 for the first, 0.123 ± 0.088 for the second.

EELVKLQGERVRGLKQQKASAELIEEEVAKHLKLKAQL [L31H] and EELVKLQGERVRGLKQQKASAELIEEEVAKRLKLKAQL [L31R] are within error of each other in abundance fitness: -0.144 ± 0.11 for the first, -0.126 ± 0.07 for the second.

First: EELVKLQGERVRGLKQQKASAELIEEEVAKYLKLKAQL [L31Y]
Second: EELVKLQGERVRGLKQQKASAELIEEEVAKILKLKAQL [L31I]
The abundance fitness of the first is higher: -0.199 ± 0.1 for the first, -0.426 ± 0.087 for the second.

Going from EELVKLQGERVRGLKQQKASAELIEEEVAKGLKLKAQL [L31G] to EELVKLQGERVRGLKQQKASAELIEEEVAKFLKLKAQL [L31F], the abundance fitness falls from -0.044 ± 0.093 to -0.397 ± 0.084.

EELVKLQGERVRGLKQQKASAELIEEEVAKMLKLKAQL [L31M] and EELVKLQGERVRGLKQQKASAELIEEEVAKWLKLKAQL [L31W] are within error of each other in abundance fitness: -0.338 ± 0.12 for the first, -0.172 ± 0.093 for the second.

Going from EELVKLQGERVRGLKQQKASAELIEEEVAKVLKLKAQL [L31V] to EELVKLQGERVRGLKQQKASAELIEEEVAKSLKLKAQL [L31S], the abundance fitness rises from -0.436 ± 0.073 to 0.026 ± 0.076.

EELVKLQGERVRGLKQQKASAELIEEEVAKTLKLKAQL [L31T] and EELVKLQGERVRGLKQQKASAELIEEEVAKKLKLKAQL [L31K] are within error of each other in abundance fitness: -0.058 ± 0.093 for the first, 0.002 ± 0.098 for the second.

EELVKLQGERVRGLKQQKASAELIEEEVAKDLKLKAQL [L31D] and EELVKLQGERVRGLKQQKASAELIEEEVAKQLKLKAQL [L31Q] are within error of each other in abundance fitness: 0.222 ± 0.094 for the first, 0.087 ± 0.12 for the second.

First: EELVKLQGERVRGLKQQKASAELIEEEVAKCLKLKAQL [L31C]
Second: EELVKLQGERVRGLKQQKASAELIEEEVIKLLKLKAQL [A29I]
The abundance fitness of the first is higher: -0.187 ± 0.097 for the first, -0.618 ± 0.11 for the second.

EELVKLQGERVRGLKQQKASAELIEEEVKKLLKLKAQL [A29K] and EELVKLQGERVRGLKQQKASAELIEEEVLKLLKLKAQL [A29L] are within error of each other in abundance fitness: -0.299 ± 0.17 for the first, -0.462 ± 0.083 for the second.

Going from EELVKLQGERVRGLKQQKASAELIEEEVVKLLKLKAQL [A29V] to EELVKLQGERVRGLKQQKASAELIEEEVGKLLKLKAQL [A29G], the abundance fitness rises from -0.277 ± 0.084 to -0.092 ± 0.09.

Going from EELVKLQGERVRGLKQQKASAELIEEEVCKLLKLKAQL [A29C] to EELVKLQGERVRGLKQQKASAELIEEEVNKLLKLKAQL [A29N], the abundance fitness rises from -0.415 ± 0.093 to -0.183 ± 0.081.

Compared with EELVKLQGERVRGLKQQKASAELIEEEVMKLLKLKAQL [A29M], EELVKLQGERVRGLKQQKASAELIEEEVFKLLKLKAQL [A29F] is lower in abundance fitness: -0.069 ± 0.11 for the first, -0.8 ± 0.11 for the second.

EELVKLQGERVRGLKQQKASAELIEEEVQKLLKLKAQL [A29Q] and EELVKLQGERVRGLKQQKASAELIEEEVDKLLKLKAQL [A29D] are within error of each other in abundance fitness: 0.07 ± 0.11 for the first, 0.106 ± 0.11 for the second.

Going from EELVKLQGERVRGLKQQKASAELIEEEVWKLLKLKAQL [A29W] to EELVKLQGERVRGLKQQKASAELIEEEVHKLLKLKAQL [A29H], the abundance fitness rises from -0.804 ± 0.17 to -0.265 ± 0.093.

First: EELVKLQGERVRGLKQQKASAELIEEEVPKLLKLKAQL [A29P]
Second: EELVKLQGERVRGLKQQKASAELIEEEVRKLLKLKAQL [A29R]
The abundance fitness of the first is lower: -0.37 ± 0.09 for the first, -0.189 ± 0.076 for the second.

First: EELVKLQGERVRGLKQQKASAELIEEEVTKLLKLKAQL [A29T]
Second: EELVKLQGERVRGLKQQKASAELIEEEVAKLHKLKAQL [L32H]
The abundance fitness of the first is lower: -0.26 ± 0.1 for the first, 0.08 ± 0.087 for the second.

Going from EELVKLQGERVRGLKQQKASAELIEEEVAKLFKLKAQL [L32F] to EELVKLQGERVRGLKQQKASAELIEEEVAKLNKLKAQL [L32N], the abundance fitness rises from -0.289 ± 0.076 to 0.247 ± 0.091.

First: EELVKLQGERVRGLKQQKASAELIEEEVAKLIKLKAQL [L32I]
Second: EELVKLQGERVRGLKQQKASAELIEEEVAKLDKLKAQL [L32D]
The abundance fitness of the first is lower: -0.093 ± 0.1 for the first, 0.174 ± 0.1 for the second.

EELVKLQGERVRGLKQQKASAELIEEEVAKLCKLKAQL [L32C] and EELVKLQGERVRGLKQQKASAELIEEEVAKLPKLKAQL [L32P] are within error of each other in abundance fitness: 0.116 ± 0.096 for the first, 0.098 ± 0.11 for the second.

EELVKLQGERVRGLKQQKASAELIEEEVAKLGKLKAQL [L32G] and EELVKLQGERVRGLKQQKASAELIEEEVAKLKKLKAQL [L32K] are within error of each other in abundance fitness: 0.121 ± 0.091 for the first, 0.105 ± 0.11 for the second.

EELVKLQGERVRGLKQQKASAELIEEEVAKLMKLKAQL [L32M] and EELVKLQGERVRGLKQQKASAELIEEEVAKLAKLKAQL [L32A] are within error of each other in abundance fitness: 0.206 ± 0.087 for the first, 0.227 ± 0.089 for the second.

Compared with EELVKLQGERVRGLKQQKASAELIEEEVADLLKLKAQL [K30D], EELVKLQGERVRGLKQQKASAELIEEEVAFLLKLKAQL [K30F] is lower in abundance fitness: 0.072 ± 0.15 for the first, -0.722 ± 0.097 for the second.

First: EELVKLQGERVRGLKQQKASAELIEEEVAMLLKLKAQL [K30M]
Second: EELVKLQGERVRGLKQQKASAELIEEEVAWLLKLKAQL [K30W]
The abundance fitness of the first is higher: -0.234 ± 0.13 for the first, -0.639 ± 0.12 for the second.

First: EELVKLQGERVRGLKQQKASAELIEEEVAELLKLKAQL [K30E]
Second: EELVKLQGERVRGLKQQKASAELIEEEVAGLLKLKAQL [K30G]
The abundance fitness of the first is higher: 0.1 ± 0.09 for the first, -0.364 ± 0.11 for the second.

EELVKLQGERVRGLKQQKASAELIEEEVAILLKLKAQL [K30I] and EELVKLQGERVRGLKQQKASAELIEEEVAHLLKLKAQL [K30H] are within error of each other in abundance fitness: -0.232 ± 0.098 for the first, -0.247 ± 0.097 for the second.

Compared with EELVKLQGERVRGLKQQKASAELIEEEVAALLKLKAQL [K30A], EELVKLQGERVRGLKQQKASAELIEEEVATLLKLKAQL [K30T] is lower in abundance fitness: -0.04 ± 0.081 for the first, -0.246 ± 0.078 for the second.

EELVKLQGERVRGLKQQKASAELIEEEVAPLLKLKAQL [K30P] and EELVKLQGERVRGLKQQKASAELIEEEVALLLKLKAQL [K30L] are within error of each other in abundance fitness: -0.219 ± 0.074 for the first, -0.211 ± 0.076 for the second.

First: EELVKLQGERVRGLKQQKASAELIEEEVACLLKLKAQL [K30C]
Second: EELVKLQGERVRGLKQQKASAELIEEEVAVLLKLKAQL [K30V]
The abundance fitness of the first is lower: -0.411 ± 0.08 for the first, -0.136 ± 0.094 for the second.

Compared with EELVKLQGERVRGLKQQKASAELIEEEVAYLLKLKAQL [K30Y], EELVKLQGERVRGLKQQKASAELIEEEVARLLKLKAQL [K30R] is higher in abundance fitness: -0.484 ± 0.11 for the first, -0.204 ± 0.079 for the second.

EELVKLQGERVRGLKQQKASAELIEEEVASLLKLKAQL [K30S] and EELVKLQGERVRGLKQQKASAELIEEEVAQLLKLKAQL [K30Q] are within error of each other in abundance fitness: -0.218 ± 0.069 for the first, -0.102 ± 0.12 for the second.

Compared with EELVKLQGERVRGLKQQKASAELIEEEVANLLKLKAQL [K30N], EELVKLQGERVRGLKQQKASAELIEEETAKLLKLKAQL [V28T] is higher in abundance fitness: -0.119 ± 0.084 for the first, 0.159 ± 0.099 for the second.
